1 molecule from publication PMC11044963, “Probing the CRL4^DCAF12 interactions with MAGEA3 and CCT5 di-Glu C-terminal degrons” (PNAS Nexus, 2024) can be followed below.

The test system of one test is DCAF12. Nature of the test: NanoBRET with full-length proteins, DCAF12. Particulars: HEK293T cells; FL protein. The class given is cell-based, human. From the text: To further investigate the DCAF12 interaction with MAGEA3 and CCT5 in cells, we developed a NanoBRET assay, which measures the interaction of […] FL MEAGEA3/CCT5 or C-terminal peptide containing degron sequences ([…]/[…], respectively). When donor and acceptor proteins are in close proximity, the donor excites the acceptor, which then emits fluorescence, allowing for direct measurement of protein–protein interaction in cells.
HEK293T cells were plated in 96-well plates (2 × 10^4/well) and 4 h later transfected with 0.03 µg/well N-terminally HT-tagged DCAF12 (WT or mutants) or HT alone and 0.001 µg/well N-terminally NL-tagged CCT5 and MAGEA3 (FL or -EE degrons) using X-tremeGene HP transfection reagent (Roche), following the manufacturer's instructions. […] Four hours later, 10 µL of NanoBRET Nano-Glo Substrate solution (8 µL/mL Nano-Glo substrate (Promega) diluted in DMEM/F12 no phenol red, supplemented with 4% FBS, penicillin 100 U/mL, and streptomycin 100 µg/mL) was added, and the signal was read. Donor emission at 450 nm (filter: 450 nm/BP 80 nm) and acceptor emission at 618 nm (filter: 610 nm/LP) were measured within 10 min of substrate addition using CLARIOstar microplate reader (Mandel). […]
A general note: Bioluminescence resonance energy transfer reports proximity on the nanometre scale.

Test [1] concerns DCAF12 mutants K91A, K108A, R203A, R256A, R344A. Nature of the test: NanoBRET with full-length proteins, DCAF12 mutants. Format: cell-based, human. The conditions noted are these: HEK293T cells; FL protein; all DCAF12 mutations vs WT. From the text:
Fig. 2. Conserved arginine and lysine residues near DCAF12 central channel participate in MAGEA3 binding in cells. A) DCAF12 electrostatic surface potential analysis showing negatively and positively charged residues colored in red and blue, respectively. On the left, DDB1 contacting surface of DCAF12. On the right, substrate contacting surface with positively charged residues—Arg203, Arg256, and Arg344—highlighted as sticks. Electrostatic potential is shown on a scale of −10 (red) kT/e to 10 (blue). B) Conservation analysis of DCAF12 showing high conservation of the same positively charged residues (represented as sticks) among homologous sequences. Residues were colored on a scale from variable/low conservation (dark teal) to high conservation (magenta). […]
HEK293T cells were plated in 96-well plates (2 × 10^4/well) and 4 h later transfected with 0.03 µg/well N-terminally HT-tagged DCAF12 (WT or mutants) or HT alone and 0.001 µg/well N-terminally NL-tagged CCT5 and MAGEA3 (FL or -EE degrons) using X-tremeGene HP transfection reagent (Roche), following the manufacturer's instructions. […] Four hours later, 10 µL of NanoBRET Nano-Glo Substrate solution (8 µL/mL Nano-Glo substrate (Promega) diluted in DMEM/F12 no phenol red, supplemented with 4% FBS, penicillin 100 U/mL, and streptomycin 100 µg/mL) was added, and the signal was read. […]

B1: MAGEA3-FL: full-length melanoma-associated antigen 3 protein (protein)
chain: MPLEQRSQHCKPEEGLEARGEALGLVGAQAPATEEQEAASSSSTLVEVTLGEVPAAESPDPPQSPQGASSLPTTMNYPLWSQSYEDSSNQEEEGPSTFPDLESEFQAALSRKVAELVHFLLLKYRAREPVTKAEMLGSVVGNWQYFFPVIFSKASSSLQLVFGIELMEVDPIGHLYIFATCLGLSYDGLLGDNQIMPKAGLLIIVLAIIAREGDCAPEEKIWEELSVLEVFEGREDSILGDPKKLLTQHFVQENYLEYRQVPGSDPACYEFLWGPRALVETSYVKVLHHMVKISGGPHISYPPLHEWVLREGEE
modifications: left off: NanoLuc, N-terminal, kept
notes: full-length melanoma-associated antigen 3 protein
As for B1, the “BRET signal over negative control” value in the test on DCAF12 is listed as 22 fold. Besides, in test [1], the “decrease of DCAF12 interaction by mutations, NanoBRET” value is recorded as “over 50%”.
